In IntAct's records for PubMed 16963558:

B1: Non-structural protein 1 (Influenza A virus (strain A/Puerto Rico/8/1934 H1N1)), P03496 (parent)
chain: MDPNTVSSFQVDCFLWHVRKRVADQELGDAPFLDRLRRDQKSLRGRGSTLGLDIETATRAGKQIVERILKEESDEALKMTMASVPASRYLTDMTLEEMSRDWSMLIPKQKVAGPLCIRMDQAIMDKNIILKANFSVIFDRLETLILLRAFTEEGAIVGEISPLPSLPGHTAEDVKNAVGVLIGGLEWNDNTVRVSETLQRFAWRSSNENGRPPLTPKQKREMAGTIRSEV

Variants of: B1
Settings: with p85b_human PIK3R2, O00459
Chain of p85b_human PIK3R2, O00459 (O00459 whole entry): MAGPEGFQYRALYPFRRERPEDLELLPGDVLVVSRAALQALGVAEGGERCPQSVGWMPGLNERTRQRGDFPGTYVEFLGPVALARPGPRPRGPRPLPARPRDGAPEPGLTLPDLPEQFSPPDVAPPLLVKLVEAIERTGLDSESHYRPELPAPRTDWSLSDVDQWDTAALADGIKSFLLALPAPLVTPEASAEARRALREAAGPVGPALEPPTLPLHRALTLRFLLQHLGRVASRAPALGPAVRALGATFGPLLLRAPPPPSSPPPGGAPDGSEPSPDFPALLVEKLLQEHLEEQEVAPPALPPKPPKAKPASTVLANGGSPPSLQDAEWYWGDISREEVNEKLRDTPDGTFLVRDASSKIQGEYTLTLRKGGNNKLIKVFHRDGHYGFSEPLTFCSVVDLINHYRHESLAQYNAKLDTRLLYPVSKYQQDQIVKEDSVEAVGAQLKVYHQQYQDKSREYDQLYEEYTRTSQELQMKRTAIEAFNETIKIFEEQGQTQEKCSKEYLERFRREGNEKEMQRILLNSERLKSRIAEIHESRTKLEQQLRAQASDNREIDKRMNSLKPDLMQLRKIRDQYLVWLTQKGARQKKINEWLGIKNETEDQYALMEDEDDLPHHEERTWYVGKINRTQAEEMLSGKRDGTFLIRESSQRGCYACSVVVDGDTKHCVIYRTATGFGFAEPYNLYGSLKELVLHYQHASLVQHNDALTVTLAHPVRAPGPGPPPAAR
In the case of Y89F, the “effect of a mutation on the interaction” value is reported as “disrupting interaction strength”. In the case of M93A, the “effect of a mutation on the interaction” value is reported as “disrupting interaction strength”.

Variants of: B1
Settings: with p85b_bovin PIK3R2, P23726
Chain of p85b_bovin PIK3R2, P23726 (P23726 whole entry): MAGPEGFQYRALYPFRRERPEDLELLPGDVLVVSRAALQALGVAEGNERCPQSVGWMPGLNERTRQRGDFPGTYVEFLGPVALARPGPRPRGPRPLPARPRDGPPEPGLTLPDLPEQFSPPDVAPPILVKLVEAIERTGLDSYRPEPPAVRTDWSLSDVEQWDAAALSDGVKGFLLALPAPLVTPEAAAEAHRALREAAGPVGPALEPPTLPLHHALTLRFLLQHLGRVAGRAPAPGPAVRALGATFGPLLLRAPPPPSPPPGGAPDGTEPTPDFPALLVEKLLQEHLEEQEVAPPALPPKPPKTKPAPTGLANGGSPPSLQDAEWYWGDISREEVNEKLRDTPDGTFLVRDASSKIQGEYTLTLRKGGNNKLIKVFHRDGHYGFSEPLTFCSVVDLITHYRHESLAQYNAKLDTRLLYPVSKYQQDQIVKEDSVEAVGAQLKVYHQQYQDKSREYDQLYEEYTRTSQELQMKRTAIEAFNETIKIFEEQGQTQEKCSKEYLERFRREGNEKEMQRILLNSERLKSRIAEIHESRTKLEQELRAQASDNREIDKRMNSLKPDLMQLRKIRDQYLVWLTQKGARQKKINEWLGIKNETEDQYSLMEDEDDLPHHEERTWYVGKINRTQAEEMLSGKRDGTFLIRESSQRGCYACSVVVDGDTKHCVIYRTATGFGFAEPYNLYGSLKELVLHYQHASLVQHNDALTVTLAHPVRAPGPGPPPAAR
With Y89F the “effect of a mutation on the interaction” value was “disrupting interaction strength”.
